Results published in patent US20220056104A1 (Janssen / Centocor, published 2022).

T1: DcR3 (UniProt O95407 30-300, limits assumed)
T1 construct: the construct is not described; also called decoy receptor DcR3; TNFRSF6B
T1 sequence (looked up): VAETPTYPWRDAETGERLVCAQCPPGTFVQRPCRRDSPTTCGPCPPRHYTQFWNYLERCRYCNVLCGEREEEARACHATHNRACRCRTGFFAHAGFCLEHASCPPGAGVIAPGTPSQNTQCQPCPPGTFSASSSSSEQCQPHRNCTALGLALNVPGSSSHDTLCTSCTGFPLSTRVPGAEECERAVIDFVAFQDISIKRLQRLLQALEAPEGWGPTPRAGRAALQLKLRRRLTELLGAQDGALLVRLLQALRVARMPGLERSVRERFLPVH

T2: Recombinant DR3-Fc (R&D Systems, cat. #943-D3) (UniProt Q93038 25-199, limits assumed)
T2 construct: dimeric MW~92 kDa; also called DR3 receptor; Fc-DR3; not shown: Fc part of the bought fusion
T2 sequence (looked up): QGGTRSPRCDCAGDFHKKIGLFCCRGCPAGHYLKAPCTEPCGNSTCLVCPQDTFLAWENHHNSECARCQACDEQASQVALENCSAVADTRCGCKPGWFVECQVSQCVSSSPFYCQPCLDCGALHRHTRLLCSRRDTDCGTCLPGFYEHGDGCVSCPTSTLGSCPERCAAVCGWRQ


What was measured:
DcR3 = molecular target: T1, DcR3; assay: ELISA, DcR3
[1] = molecular target: T2, Recombinant DR3-Fc (R&D Systems, cat. …); assay: ELISA, DR3-Fc immobilized
Experimental: All ELISA-based measurements were collected in triplicate, and error values report the standard error between measurements. Recombinant DR3-Fc (R&D Systems, cat. #943-D3), dimeric MW˜92 kDa, was non-specifically immobilized onto plates (Nunc maxisorp, cat. #436110) in 100 μL DR3-Fc, diluted to 10 μg/mL onto a 96-well White Maxisorp plate (Nunc, cat #436110) (O/N, 4° C.). Plates were block for 1 hour at room temperature with 250 μl/well of casein buffer and blocking buffer was removed. 50 μL of TL1A variants were diluted in StartingBlock PBS (Thermo Fisher Scientific), at 25 μg/mL, diluting 3× over each well, according to the plate map description for 20160623) per well on a 96-well White Maxisorp plate (Nunc, cat #: 436110) (overnight at 4° C.).
Plates were washed three times with TBST. 100 μl/well polyclonal rabbit anti-human TL1A-biotin antibody (diluted 1:1000 in Starting Block PBS) was added and plates were incubated for 1 hour at room temperature with shaking at 150 rpm. TL1A-biotin antibody was removed and 100 μl/well streptavidin-HRP conjugate (diluted 1:10,000 in Starting Block PBS) was added to plates. Plates were incubated for 1 hour at room temperature with shaking at 150 rpm. Plates were washed three times with TBST. 100 μl/well POD Chemiluminescence substrate (Roche, cat #: 11582950001) was added immediately prior to reading plate luminescence using a Molecular Devices M5 plate reader with a delay setting of 100 ms.
Variants of TL1A were generated and tested for binding to DR3 and DcR3 by ELISA as described.

Binder | EC50 (DcR3) [nM] | Rel EC50 (DcR3) | EC50 [1] [nM] | Rel EC50 [1]
TL1W106 (His-TEV-TL1A T185D) (ligand, also called TL1W106 (T185D)) HHHHHHENLYFQGLKGQEFAPSHQQVYAPLRADGDKPRAHLTVVRQTPTQHFKNQFPALHWEHELGLAFTKNRMNYTNKFLLIPESGDYFIYSQVTFRGMTSECSEIRQAGRPNKPDSITVVITKVDDSYPEPTQLLMGTKSVCEVGSNWFQPIYLGAMFSLQEGDKLMVNVSDISLVDYTKEDKTFFGAFLL | 79.9 | 17.4 ratio (head: nM) | 124 | 4.7 ratio (head: nM)
TL1W107 (His-TEV-TL1A D186Y) (ligand, also called TL1W107 (D186Y)) HHHHHHENLYFQGLKGQEFAPSHQQVYAPLRADGDKPRAHLTVVRQTPTQHFKNQFPALHWEHELGLAFTKNRMNYTNKFLLIPESGDYFIYSQVTFRGMTSECSEIRQAGRPNKPDSITVVITKVTYSYPEPTQLLMGTKSVCEVGSNWFQPIYLGAMFSLQEGDKLMVNVSDISLVDYTKEDKTFFGAFLL | 6.2 | 1.4 ratio (head: nM) | 63.8 | 2.4 ratio (head: nM)
TL1W110 (His-TEV-TL1A S187K) (ligand, also called TL1W110 (S187K)) HHHHHHENLYFQGLKGQEFAPSHQQVYAPLRADGDKPRAHLTVVRQTPTQHFKNQFPALHWEHELGLAFTKNRMNYTNKFLLIPESGDYFIYSQVTFRGMTSECSEIRQAGRPNKPDSITVVITKVTDKYPEPTQLLMGTKSVCEVGSNWFQPIYLGAMFSLQEGDKLMVNVSDISLVDYTKEDKTFFGAFLL | 15.8 | 3.4 ratio (head: nM) | 33.7 | 1.3 ratio (head: nM)
TL1W111 (His-TEV-TL1A S187D) (ligand, also called TL1W111 (S187D)) HHHHHHENLYFQGLKGQEFAPSHQQVYAPLRADGDKPRAHLTVVRQTPTQHFKNQFPALHWEHELGLAFTKNRMNYTNKFLLIPESGDYFIYSQVTFRGMTSECSEIRQAGRPNKPDSITVVITKVTDDYPEPTQLLMGTKSVCEVGSNWFQPIYLGAMFSLQEGDKLMVNVSDISLVDYTKEDKTFFGAFLL | 16.7 | 3.6 ratio (head: nM) | 44.2 | 1.7 ratio (head: nM)
TL1W112 (His-TEV-TL1A P189F) (ligand, also called TL1W112 (P189F)) HHHHHHENLYFQGLKGQEFAPSHQQVYAPLRADGDKPRAHLTVVRQTPTQHFKNQFPALHWEHELGLAFTKNRMNYTNKFLLIPESGDYFIYSQVTFRGMTSECSEIRQAGRPNKPDSITVVITKVTDSYFEPTQLLMGTKSVCEVGSNWFQPIYLGAMFSLQEGDKLMVNVSDISLVDYTKEDKTFFGAFLL | 66.1 | 14.4 ratio (head: nM) | 202 | 7.7 ratio (head: nM)
TL1W113 (His-TEV-TL1A P189S) (ligand, also called TL1W113 (P189S)) HHHHHHENLYFQGLKGQEFAPSHQQVYAPLRADGDKPRAHLTVVRQTPTQHFKNQFPALHWEHELGLAFTKNRMNYTNKFLLIPESGDYFIYSQVTFRGMTSECSEIRQAGRPNKPDSITVVITKVTDSYSEPTQLLMGTKSVCEVGSNWFQPIYLGAMFSLQEGDKLMVNVSDISLVDYTKEDKTFFGAFLL | 19.8 | 4.3 ratio (head: nM) | 1000 | 38.2 ratio (head: nM)
TL1W114 (His-TEV-TL1A T192A) (ligand, also called TL1W114 (T192A)) HHHHHHENLYFQGLKGQEFAPSHQQVYAPLRADGDKPRAHLTVVRQTPTQHFKNQFPALHWEHELGLAFTKNRMNYTNKFLLIPESGDYFIYSQVTFRGMTSECSEIRQAGRPNKPDSITVVITKVTDSYPEPAQLLMGTKSVCEVGSNWFQPIYLGAMFSLQEGDKLMVNVSDISLVDYTKEDKTFFGAFLL | 10 | 2.2 ratio (head: nM) | 23.3 | 0.9 ratio (head: nM)
TL1W115 (His-TEV-TL1A T192F) (ligand, also called TL1W115 (T192F)) HHHHHHENLYFQGLKGQEFAPSHQQVYAPLRADGDKPRAHLTVVRQTPTQHFKNQFPALHWEHELGLAFTKNRMNYTNKFLLIPESGDYFIYSQVTFRGMTSECSEIRQAGRPNKPDSITVVITKVTDSYPEPFQLLMGTKSVCEVGSNWFQPIYLGAMFSLQEGDKLMVNVSDISLVDYTKEDKTFFGAFLL | 10.6 | 2.3 ratio (head: nM) | 14.2 | 0.5 ratio (head: nM)
TL1W116 (His-TEV-TL1A T192K) (ligand, also called TL1W116 (T192K)) HHHHHHENLYFQGLKGQEFAPSHQQVYAPLRADGDKPRAHLTVVRQTPTQHFKNQFPALHWEHELGLAFTKNRMNYTNKFLLIPESGDYFIYSQVTFRGMTSECSEIRQAGRPNKPDSITVVITKVTDSYPEPKQLLMGTKSVCEVGSNWFQPIYLGAMFSLQEGDKLMVNVSDISLVDYTKEDKTFFGAFLL | 23.3 | 5.1 ratio (head: nM) | 77 | 2.9 ratio (head: nM)
TL1W117 (His-TEV-TL1A T192E) (ligand, also called TL1W117 (T192E)) HHHHHHENLYFQGLKGQEFAPSHQQVYAPLRADGDKPRAHLTVVRQTPTQHFKNQFPALHWEHELGLAFTKNRMNYTNKFLLIPESGDYFIYSQVTFRGMTSECSEIRQAGRPNKPDSITVVITKVTDSYPEPEQLLMGTKSVCEVGSNWFQPIYLGAMFSLQEGDKLMVNVSDISLVDYTKEDKTFFGAFLL | 12 | 2.6 ratio (head: nM) | 113 | 4.3 ratio (head: nM)
TL1W118 (His-TEV-TL1A S206A) (ligand, also called TL1W118 (S206A)) HHHHHHENLYFQGLKGQEFAPSHQQVYAPLRADGDKPRAHLTVVRQTPTQHFKNQFPALHWEHELGLAFTKNRMNYTNKFLLIPESGDYFIYSQVTFRGMTSECSEIRQAGRPNKPDSITVVITKVTDSYPEPTQLLMGTKSVCEVGANWFQPIYLGAMFSLQEGDKLMVNVSDISLVDYTKEDKTFFGAFLL | 8.8 | 1.9 ratio (head: nM) | 41.7 | 1.6 ratio (head: nM)
TL1W119 (His-TEV-TL1A S206F) (ligand, also called TL1W119 (S206F)) HHHHHHENLYFQGLKGQEFAPSHQQVYAPLRADGDKPRAHLTVVRQTPTQHFKNQFPALHWEHELGLAFTKNRMNYTNKFLLIPESGDYFIYSQVTFRGMTSECSEIRQAGRPNKPDSITVVITKVTDSYPEPTQLLMGTKSVCEVGFNWFQPIYLGAMFSLQEGDKLMVNVSDISLVDYTKEDKTFFGAFLL | 8.1 | 1.8 ratio (head: nM) | 87.5 | 3.3 ratio (head: nM)
TL1W120 (His-TEV-TL1A S206K) (ligand, also called TL1W120 (S206K)) HHHHHHENLYFQGLKGQEFAPSHQQVYAPLRADGDKPRAHLTVVRQTPTQHFKNQFPALHWEHELGLAFTKNRMNYTNKFLLIPESGDYFIYSQVTFRGMTSECSEIRQAGRPNKPDSITVVITKVTDSYPEPTQLLMGTKSVCEVGKNWFQPIYLGAMFSLQEGDKLMVNVSDISLVDYTKEDKTFFGAFLL | 91 | 19.8 ratio (head: nM) | 114 | 4.4 ratio (head: nM)
TL1W121 (His-TEV-TL1A S206E) (ligand, also called TL1W121 (S206E)) HHHHHHENLYFQGLKGQEFAPSHQQVYAPLRADGDKPRAHLTVVRQTPTQHFKNQFPALHWEHELGLAFTKNRMNYTNKFLLIPESGDYFIYSQVTFRGMTSECSEIRQAGRPNKPDSITVVITKVTDSYPEPTQLLMGTKSVCEVGENWFQPIYLGAMFSLQEGDKLMVNVSDISLVDYTKEDKTFFGAFLL | 17.2 | 3.7 ratio (head: nM) | 105 | 4 ratio (head: nM)
TL1W123 (His-TEV-TL1A N207S) (ligand, also called TL1W123 (N207S)) HHHHHHENLYFQGLKGQEFAPSHQQVYAPLRADGDKPRAHLTVVRQTPTQHFKNQFPALHWEHELGLAFTKNRMNYTNKFLLIPESGDYFIYSQVTFRGMTSECSEIRQAGRPNKPDSITVVITKVTDSYPEPTQLLMGTKSVCEVGSSWFQPIYLGAMFSLQEGDKLMVNVSDISLVDYTKEDKTFFGAFLL | 8.6 | 1.9 ratio (head: nM) | 26.8 | 1 ratio (head: nM)
TL1W124 (His-TEV-TL1A N207K) (ligand, also called TL1W124 (N207K)) HHHHHHENLYFQGLKGQEFAPSHQQVYAPLRADGDKPRAHLTVVRQTPTQHFKNQFPALHWEHELGLAFTKNRMNYTNKFLLIPESGDYFIYSQVTFRGMTSECSEIRQAGRPNKPDSITVVITKVTDSYPEPTQLLMGTKSVCEVGSKWFQPIYLGAMFSLQEGDKLMVNVSDISLVDYTKEDKTFFGAFLL | 15.4 | 3.4 ratio (head: nM) | 110 | 4.2 ratio (head: nM)
TL1W125 (His-TEV-TL1A N207E) (ligand, also called TL1W125 (N207E)) HHHHHHENLYFQGLKGQEFAPSHQQVYAPLRADGDKPRAHLTVVRQTPTQHFKNQFPALHWEHELGLAFTKNRMNYTNKFLLIPESGDYFIYSQVTFRGMTSECSEIRQAGRPNKPDSITVVITKVTDSYPEPTQLLMGTKSVCEVGSEWFQPIYLGAMFSLQEGDKLMVNVSDISLVDYTKEDKTFFGAFLL | 9.8 | 2.1 ratio (head: nM) | 506 | 19.3 ratio (head: nM)
